The target of data set [1] is T1, Zif268 (three-finger peptide) (UniProt P08046 P08046:333-421). As to the kind of experiment: cell_activity; 293 cells.
Data set [2] addresses T1, Zif268 (three-finger peptide). As to the kind of experiment: EMSA; room temp.
For data set [3] the target is unchanged. As to the kind of experiment: EMSA; pH 7.0, 100 mM NaCl, 5 mM MgCl2, Zn, room temp.

The term Kd denotes a measure of binding affinity in units of concentration.

B1: Z site in luciferase reporter promoter (dsDNA)
DNA 1: GCGTGGGCG
DNA 2: CGCCCACGC
On to B1, for which the activity in data set [1] worked out at 13 fold repression.

B2: N/Z site in luciferase reporter promoter (dsDNA)
DNA 1: AAGGGTTCAGGCGTGGGCG
DNA 2: CGCCCACGCCTGAACCCTT
In turn, B2 yielded an activity in data set [1] of 8.9 fold repression.

B3: N/Z site (dsDNA)
DNA 1: TCTGCAAGGGTTCAGGCGTGGGCGGTAAG
DNA 2: CTTACCGCCCACGCCTGAACCCTTGCAGA
Molecule B3 displayed a Kd in data set [2] of 0.014 nM.

B4: N//Z site (dsDNA)
DNA 1: TCTGCAAGGGTTCAGTGCGTGGGCGGTAAG
DNA 2: CTTACCGCCCACGCACTGAACCCTTGCAGA
In data set [2], B4 came in with a Kd of 0.014 nM.

B5: NZ site (dsDNA)
DNA 1: TCTGCAAGGGTTCAGCGTGGGCGGTAAG
DNA 2: CTTACCGCCCACGCTGAACCCTTGCAGA
B5: in data set [3], binding was characterised by a dissociation constant (Kd) of 0.012 nM.

B6: N//Z site in luciferase reporter promoter (dsDNA)
DNA 1: AAGGGTTCAGTGCGTGGGCG
DNA 2: CGCCCACGCACTGAACCCTT
B6 displayed an activity in data set [1] of 15 fold repression.

The values above are taken from US6903185.
